Patent US20220387586A1 (Hoffmann-La Roche, published 2022)
Where two headings read alike, the source gives them in different places.

T1: biotinylated-Lag3 (UniProt P18627 23-450, limits assumed, biotinylated)
T1 construct: Probably a human LAG3 ECD construct; also called Lag3 (MHCII/ELISA)
T1 sequence (looked up): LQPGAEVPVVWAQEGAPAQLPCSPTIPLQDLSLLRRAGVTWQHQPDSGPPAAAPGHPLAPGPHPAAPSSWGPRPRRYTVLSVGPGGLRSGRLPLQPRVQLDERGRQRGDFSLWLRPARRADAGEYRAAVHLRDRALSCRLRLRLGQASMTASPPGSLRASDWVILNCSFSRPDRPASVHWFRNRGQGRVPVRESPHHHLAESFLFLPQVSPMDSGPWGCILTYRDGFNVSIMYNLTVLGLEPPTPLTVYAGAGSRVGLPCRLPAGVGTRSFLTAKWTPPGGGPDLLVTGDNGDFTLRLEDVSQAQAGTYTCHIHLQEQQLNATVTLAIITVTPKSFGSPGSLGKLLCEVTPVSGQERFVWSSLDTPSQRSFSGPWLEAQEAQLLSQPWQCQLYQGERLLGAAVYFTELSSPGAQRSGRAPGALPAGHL

T2: recombinant Human LAG-3 Fc Chimera Protein (R&D Systems, 2319-L3) (human, UniProt P18627 29-450)
T2 construct: Bought protein; also called huLAG3; not shown: Fc part of the chimera
T2 sequence: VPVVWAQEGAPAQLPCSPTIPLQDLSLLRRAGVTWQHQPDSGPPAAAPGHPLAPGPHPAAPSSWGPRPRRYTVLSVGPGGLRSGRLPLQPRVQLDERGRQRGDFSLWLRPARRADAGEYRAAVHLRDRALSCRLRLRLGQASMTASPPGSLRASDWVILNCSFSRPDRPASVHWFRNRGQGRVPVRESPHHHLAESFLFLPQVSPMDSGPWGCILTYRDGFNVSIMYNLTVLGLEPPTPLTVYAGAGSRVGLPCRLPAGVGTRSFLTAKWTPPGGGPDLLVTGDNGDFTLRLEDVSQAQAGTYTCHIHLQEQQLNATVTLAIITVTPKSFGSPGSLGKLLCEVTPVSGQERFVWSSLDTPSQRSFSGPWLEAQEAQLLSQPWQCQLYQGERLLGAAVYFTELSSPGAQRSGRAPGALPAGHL

T3: LAG3 on cells (recombinant CHO cells expressing Lag3) (human, UniProt P18627 29-525)
T3 construct: The cell ELISA paragraphs say only 'Lag3'; also called CHO-LAG3; Lag3 cells
T3 sequence: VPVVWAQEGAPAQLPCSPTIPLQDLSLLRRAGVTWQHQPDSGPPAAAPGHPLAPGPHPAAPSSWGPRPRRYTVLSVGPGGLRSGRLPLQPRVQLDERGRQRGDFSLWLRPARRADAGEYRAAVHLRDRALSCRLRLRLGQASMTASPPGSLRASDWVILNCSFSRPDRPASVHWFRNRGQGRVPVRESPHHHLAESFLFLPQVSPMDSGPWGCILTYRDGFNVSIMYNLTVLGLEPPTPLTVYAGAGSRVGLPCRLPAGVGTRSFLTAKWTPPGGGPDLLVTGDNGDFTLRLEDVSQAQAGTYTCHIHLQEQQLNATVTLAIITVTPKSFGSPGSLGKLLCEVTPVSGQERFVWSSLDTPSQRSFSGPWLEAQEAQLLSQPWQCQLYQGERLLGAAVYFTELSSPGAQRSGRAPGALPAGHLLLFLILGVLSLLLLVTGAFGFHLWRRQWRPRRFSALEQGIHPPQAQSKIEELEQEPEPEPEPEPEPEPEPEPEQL

B1: PD1/LAG3 8310 (bispecific antibody, human IgG1, kappa, L234A L235A)
heavy 1: not shown
heavy 2: EVQLLESGGGLVQPGGSLRLSCAASGFIFDDYTMNWVRQAPGKGLEWVAVISWDGGGTYYTDSVKGRFTISRDDFKNTLYLQMNSLRAEDTAVYYCAKGLTDTTLYGSDYWGQGTLVTVSSASTKGPSVFPLAPSSKSTSGGTAALGCLVEDYFPEPVTVSWNSGALTSGVHTFPAVLQSSGLYSLSSVVTVPSSSLGTQTYICNVNHKPSNTKVDEKVEPKSCDKTHTCPPCPAPEAAGGPSVFLFPPKPKDTLMISRTPEVTCVVVDVSHEDPEVKFNWYVDGVEVHNAKTKPREEQYNSTYRVVSVLTVLHQDWLNGKEYKCKVSNKALGAPIEKTISKAKGQPREPQVCTLPPSRDELTKNQVSLSCAVKGFYPSDIAVEWESNGQPENNYKTTPPVLDSDGSFFLVSKLTVDKSRWQQGNVFSCSVMHEALHNHYTQKSLSLSPGK
light 1: DIVMTQSPDSLAVSLGERATINCKASESVDTSDNSFIHWYQQKPGQSPKLLIYRSSTLESGVPDRFSGSGSGTDFTLTISSLQAEDVAVYYCQQNYDVPWTFGQGTKVEIKSSASTKGPSVFPLAPSSKSTSGGTAALGCLVKDYFPEPVTVSWNSGALTSGVHTFPAVLQSSGLYSLSSVVTVPSSSLGTQTYICNVNHKPSNTKVDKKVEPKSC
light 2: not shown
notes: 2+1 format: two LAG3 Fabs, one PD1 crossFab fused to the C-terminus of the Fc knob heavy chain
B2: PD1/LAG3 8970 (bispecific antibody, human IgG1, kappa, L234A L235A)
heavy: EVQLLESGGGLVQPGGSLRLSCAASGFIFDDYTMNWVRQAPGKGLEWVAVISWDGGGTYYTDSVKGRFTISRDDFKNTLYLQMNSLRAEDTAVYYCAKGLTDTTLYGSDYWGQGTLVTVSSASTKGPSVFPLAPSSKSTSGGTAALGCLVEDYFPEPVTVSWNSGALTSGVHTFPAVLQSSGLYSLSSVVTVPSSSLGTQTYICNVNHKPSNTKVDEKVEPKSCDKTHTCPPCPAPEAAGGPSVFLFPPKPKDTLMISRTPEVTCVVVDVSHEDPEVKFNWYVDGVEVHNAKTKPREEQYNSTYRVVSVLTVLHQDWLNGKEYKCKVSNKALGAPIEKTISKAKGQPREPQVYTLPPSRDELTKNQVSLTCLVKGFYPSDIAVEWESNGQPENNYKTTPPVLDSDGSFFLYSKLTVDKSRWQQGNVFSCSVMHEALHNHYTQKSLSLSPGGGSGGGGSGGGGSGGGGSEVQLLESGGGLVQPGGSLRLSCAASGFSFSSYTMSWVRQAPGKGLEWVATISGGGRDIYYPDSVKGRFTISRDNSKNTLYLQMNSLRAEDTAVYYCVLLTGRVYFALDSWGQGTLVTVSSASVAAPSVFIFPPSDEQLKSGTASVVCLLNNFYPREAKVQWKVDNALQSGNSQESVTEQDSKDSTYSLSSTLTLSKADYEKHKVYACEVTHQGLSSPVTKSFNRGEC
light 1: DIVMTQSPDSLAVSLGERATINCKASESVDTSDNSFIHWYQQKPGQSPKLLIYRSSTLESGVPDRFSGSGSGTDFTLTISSLQAEDVAVYYCQQNYDVPWTFGQGTKVEIKSSASTKGPSVFPLAPSSKSTSGGTAALGCLVKDYFPEPVTVSWNSGALTSGVHTFPAVLQSSGLYSLSSVVTVPSSSLGTQTYICNVNHKPSNTKVDKKVEPKSC
light 2: not shown
notes: 2+2 format
B3: PD1/LAG3 8984 (bispecific antibody, human IgG1, kappa, L234A L235A)
heavy: not shown
light 1: DIVMTQSPDSLAVSLGERATINCKASESVDTSDNSFIHWYQQKPGQSPKLLIYRSSTLESGVPDRFSGSGSGTDFTLTISSLQAEDVAVYYCQQNYDVPWTFGQGTKVEIKSSASTKGPSVFPLAPSSKSTSGGTAALGCLVKDYFPEPVTVSWNSGALTSGVHTFPAVLQSSGLYSLSSVVTVPSSSLGTQTYICNVNHKPSNTKVDKKVEPKSC
light 2: not shown
notes: 2+2 format
B4: PD1/LAG3 8311 (bispecific antibody, human IgG1, kappa, L234A L235A)
heavy 1: not shown
heavy 2: EVQLVESGGGLVQPGGSLRLACAASGFTFSDYAMSWVRQAPGKGLEWVSGIDNSGYYTYYTDSVKGRFTISRDDVKNTLYLQMNSLRAEDTAVYLCTKTHSGLIVNDAFDIWGQGTMVTVSSASTKGPSVFPLAPSSKSTSGGTAALGCLVEDYFPEPVTVSWNSGALTSGVHTFPAVLQSSGLYSLSSVVTVPSSSLGTQTYICNVNHKPSNTKVDEKVEPKSCDKTHTCPPCPAPEAAGGPSVFLFPPKPKDTLMISRTPEVTCVVVDVSHEDPEVKFNWYVDGVEVHNAKTKPREEQYNSTYRVVSVLTVLHQDWLNGKEYKCKVSNKALGAPIEKTISKAKGQPREPQVCTLPPSRDELTKNQVSLSCAVKGFYPSDIAVEWESNGQPENNYKTTPPVLDSDGSFFLVSKLTVDKSRWQQGNVFSCSVMHEALHNHYTQKSLSLSPGK
light 1: DIVMTQSPDSLAVSLGERATINCKASESVDTSDNSFIHWYQQKPGQSPKLLIYRSSTLESGVPDRFSGSGSGTDFTLTISSLQAEDVAVYYCQQNYDVPWTFGQGTKVEIKSSASTKGPSVFPLAPSSKSTSGGTAALGCLVKDYFPEPVTVSWNSGALTSGVHTFPAVLQSSGLYSLSSVVTVPSSSLGTQTYICNVNHKPSNTKVDKKVEPKSC
light 2: not shown
notes: as for B1

Columns and labels:
biotinylated-Lag3 = target: T1, biotinylated-Lag3; assay: ELISA, inhibition of biotinylated-Lag3 binding to MHC-II on A375 cells (competitor MHC-II)
Method: 25 μl/well of A375 cells (10000 cells/well) were seeded into tissue culture treated 384-well plates (Corning, 3701) and incubated at 37° C. overnight. […] After washing (1×90 μl in PBST) cells were fixed by addition of 30 μl/well glutaraldehyde to a final concentration of 0.05% (Sigma Cat.No: G5882), 10 min at room temperature. After washing (3×90 μl/well with PBST-buffer) 25 μl/well Poly-HRP40-Streptavidin (Fitzgerald, 65R-S104PHRPx) was added in a 1:2000 or 1:8000 dilution and incubated at RT for 1 h. After washing (3×90 μl/well with PBST-buffer) 25 μl/well TMB substrate (Roche, 11835033001) was added and incubated for 2 to 10 min. Measurement took place on a Tecan Safire 2 instrument at 370/492 nm.

[1] = target: T2, recombinant Human LAG-3 Fc Chimera …; assay: ELISA on coated Human LAG-3 Fc Chimera (rel. EC50)
Method: After washing (3×90 μl/well with PBST-buffer) each well was incubated with 90 μl blocking buffer (PBS+2% BSA+0.05% Tween 20) for 1 h at room temperature. […] After washing (3×90 μl/well with PBST-buffer) 25 μl/well goat anti-Human Ig κ chain antibody-HRP conjugate (Milipore, AP502P) was added in a 1:2000 dilution and incubated at RT for 1 h. After washing (3×90 μl/well with PBST-buffer) 25 μl/well TMB substrate (Roche, 11835033001) was added and incubated for 2-10 min. Measurement took place on a Tecan Safire 2 instrument at 370/492 nm.

[2] = target: T4, PD1 on PD1+LAG3+ human U2OS cells (UniProt Q15116 25-288); assay: cell-based or functional assay
T4 sequence (Q15116 25-288): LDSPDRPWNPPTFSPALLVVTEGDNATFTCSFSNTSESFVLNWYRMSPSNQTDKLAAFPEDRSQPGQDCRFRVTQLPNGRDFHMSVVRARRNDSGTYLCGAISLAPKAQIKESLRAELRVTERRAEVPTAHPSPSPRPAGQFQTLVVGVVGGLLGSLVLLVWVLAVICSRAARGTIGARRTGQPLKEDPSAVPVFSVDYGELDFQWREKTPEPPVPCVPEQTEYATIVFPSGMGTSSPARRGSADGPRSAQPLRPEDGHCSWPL

[3] = target: T4, PD1 on PD1+LAG3+ human U2OS cells; assay: cell-based or functional assay; remark: listed apart in the source
[4] = target: T5, biotinylated PD1-ECD-AviHis (human, UniProt Q15116 25-170, biotinylated); assay: ELISA on coated biotinylated PD1-ECD-AviHis (rel. EC50)
T5 construct: also called huPD1; hu PD1; not shown: Avi-His tag
T5 sequence (Q15116 25-170): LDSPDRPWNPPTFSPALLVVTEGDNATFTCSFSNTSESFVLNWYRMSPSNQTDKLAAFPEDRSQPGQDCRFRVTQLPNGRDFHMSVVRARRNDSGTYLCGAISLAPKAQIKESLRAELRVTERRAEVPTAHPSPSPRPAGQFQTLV
Method: After washing (3×90 μl/well with PBST-buffer) 25 μl/well goat-anti-human H+L-POD (JIR, JIR109-036-098) was added in 1:5000 dilution and incubated at RT for 1 h on a shaker. After washing (3×90 μl/well with PBST-buffer) 25 μl/well of TMB substrate (Roche, 11835033001) was added and incubated until OD 2-3. Measurement took place at 370/492 nm.

[5] = target: T3, LAG3 on cells (recombinant CHO cells …); assay: cell ELISA on recombinant CHO cells expressing Lag3 (rel. EC50)
Method: After washing (1×90 μl in PBST) cells were fixed by addition of 30 μl/well glutaraldehyde to a final concentration of 0.05% (Sigma Cat.No: G5882), 10 min at room temperature. After washing (3×90 μl/well with PBST-buffer) 25 μl/well goat anti-Human Ig κ chain antibody-HRP conjugate (Milipore, AP502P) was added in a 1:1000 dilution and incubated at RT for 1 h. After washing (3×90 μl/well with PBST-buffer) 25 μl/well TMB substrate (Roche, 11835033001) was added and incubated for 6-10 min. Measurement took place on a Tecan Safire 2 instrument at 370/492 nm.

[6] = target: T6, full-length human PD1 on cells (human, UniProt Q15116 25-288); assay: cell ELISA on CHO-K1 cells expressing full-length human PD1 (rel. EC50)
T6 construct: also called CHO-PD1
T6 sequence (Q15116 25-288 limits assumed): as the sequence (Q15116 25-288) above
Method: (to avoid internalization). After washing carefully (1×90 μl/well PBST) cells were fixed by adding 30 μl/well 0.05% Glutaraldehyde (Sigma, Cat.No: G5882, 25%) diluted in 1×PBS-buffer and incubated for 10 min at RT. After washing (3×90 μl/well PBST) 25 μl/well secondary antibody was added for detection: goat-anti-human H+L-POD (JIR, JIR109-036-088)/Sheep-anti-mouse-POD (GE NA9310) followed by 1 h incubation at RT on shaker. After washing (3×90 μl/well PBST) 25 μl/well TMB substrate solution (Roche 11835033001) was added and incubated until OD 1.0-2.0. Plates were measured at 370/492 nm.

IC50 (biotinylated-Lag3)	EC50 [1]	EC50 [pM], dimerization binding assay (chemoluminescence) [2]	EC50 [pM], dimerization binding assay (chemoluminescence) [3]	EC50 [4]	EC50 [5]	EC50 [6]	Binder
0.47 nM	0.06 nM	114 pM	28 pM	0.06 nM	0.2 nM	0.34 nM	B1
0.45 nM	0.04 nM	83 pM	–	0.05 nM	0.2 nM	0.46 nM	B2
0.44 nM	0.05 nM	91 pM	–	0.05 nM	0.17 nM	0.54 nM	B3
0.39 nM	0.06 nM	124 pM	119 pM	0.05 nM	0.17 nM	0.32 nM	B4
